Test results from patent US6140364A, “Arachidonic acid metabolite, 16-HETE” (The University of Vermont and State Agricultural College, priority 1996, dated 2000).
Changes are numbered by the printed parent chain. Names and notes keep the numbering of the source.

Columns and labels:
[1] = test system: rabbit model of thromboembolic stroke (brain infarct); assay: Brain infarct size in rabbit model of thromboembolic stroke; assay type: in vivo; conditions: 16-HETE 1 μg/kg per minute for 1 hour from 1 h after embolization, tPA 6.3 mg/kg between 3 and 5 hours
Description: New Zealand rabbits of either sex, weighing 3-4 kilograms were used for the study. Prior to the start of the experiment, the rabbits were divided into three groups, those that were administered either 16-HETE at a rate of 1 μg/kg per minute for one hour, tPA (Genentech, Inc., San Francisco, Calif.) at a concentration of 6.3 mg/kg. 16-HETE plus tPA, or vehicle.
On the day of treatment the animals were fasted for 12 hours with free access to water and then anesthetized with an intramuscular solution of ketamine (50 mg/kg), acepromazine (20 mg) and xylazine (5 mg/kg). This solution was subsequently used to maintain a surgical depth of anesthesia as determined by responses to various physiologic and autonomic stimuli, including mean arterial pressure and response to paw pinch.
The animals were prepared for surgery by introducing femoral venous and arterial catheters (PE50 and 90, respectively; Clay Adams, Parsippany, N.J.). […]
Following determination of all base line values the right common carotid bifurcation is exposed, the internal carotid artery (ICA) isolated, a micro-arteriotomy performed and the 15-mm clot embolized intracranially via the ICA. […] Post embolization rCBF is then determined and the experiment continued if rCBF is reduced to 15 cc /100 gm/minute in at least one of the PT-IR electrodes within the embolized hemisphere. […]

[2] = test system: fibrin; conditions: compared with native tPA or other variants; cited from earlier work
[3] = compared with native tPA; cited from earlier work

B1: tPA: tissue plasminogen activator (Genentech, Inc.), thrombolytic agent (protein, UniProt P00750 36-562, looked up)
Tissue-type plasminogen …: SYQVICRDEKTQMIYQQHQSWLRPVLRSNRVEYCWCNSGRAQCHSVPVKSCSEPRCFNGGTCQQALYFSDFVCQCPEGFAGKCCEIDTRATCYEDQGISYRGTWSTAESGAECTNWNSSALAQKPYSGRRPDAIRLGLGNHNYCRNPDRDSKPWCYVFKAGKYSSEFCSTPACSEGNSDCYFGNGSAYRGTHSLTESGASCLPWNSMILIGKVYTAQNPSAQALGLGKHNYCRNPDGDAKPWCHVLKNRRLTWEYCDVPSCSTCGLRQYSQPQFRIKGGLFADIASHPWQAAIFAKHRRSPGERFLCGGILISSCWILSAAHCFQERFPPHHLTVILGRTYRVVPGEEEQKFEVEKYIVHKEFDDDTYDNDIALLQLKSDSSRCAQESSVVRTVCLPPADLQLPDWTECELSGYGKHEALSPFYSERLKEAHVRLYPSSRCTSQHLLNRTVTDNMLCAGDTRSGGPQANLHDACQGDSGGPLVCLNDGRMTLVGIISWGLGCGQKDVPGVYTKVTNYLDWIRDNMRP
[1]
  brain infarct size: significantly larger than the 16-HETE group

B2: TNK tPA: triple mutant variant of wild type tPA: T103N, N117Q, KHRR (296-299) AAAA tPA (protein, UniProt P00750 36-562, looked up, variant T103N N117Q K296A H297A R298A R299A)
Tissue-type plasminogen …: B1 Tissue-type plasminogen … with T103N, N117Q, K296A, H297A, R298A, R299A
[2]
  potency / effectiveness: most effective of the triple mutant variants

B3: C84S tPA: tPA variant in which cysteine at position 84 of the growth factor domain of native tPA is replaced by serine (protein, UniProt P00750 36-562, looked up, variant C84S)
Tissue-type plasminogen …: B1 Tissue-type plasminogen … with C84S
[2]
  potency / effectiveness: retains the functional activity of native tPA
[3]
  in vivo / circulatory half life: longer in vivo half life than native tPA
